Laboratory results from the RNAGym collection of RNA variant scans (doi:10.1073/pnas.2313332121).

B1: TPR t1 (parent)
chain: GACCAAUCUGCCCUCAGAGCUCGAGAACAUCUUCGGAUGCAGAGGAGGCAGGCUUCGGUGGCGCGAUAGCGCCAACGUCCUCAACCUCCAAUGCAUCCCACCACAUGAUGAUGCCUGAAGAGCCUUGGUUUUUUG

Variants of: B1
Test: polymerase ribozyme fitness, log enrichment relative to wild type (log ratio); higher = more active; in vitro selection for triplet polymerase activity
Procedure, shortened: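 Fitness compares each genotype's enrichment to that of the wild type on a logarithmic scale, averaging replicates with inverse-variance weights. The logarithm is base 2. Enrichment came from Illumina sequencing of input and output libraries after one triplicate round of in vitro selection, which included frozen incubation at −7 °C, of PCR-built, transcribed mutant libraries of each subunit of a heterodimeric triplet polymerase ribozyme. Only genotypes with ≥10 input reads and ≥1 read per output were kept.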

| Variant | polymerase ribozyme fitness (log ratio) |
| --- | --- |
| G61C U112A | -0.897 |
| G63U A90U | -3.53 |
| G63C C72U G107A C124U | -6.17 |
| G63C C79U G117U | -2.56 |
| G61U A83G U112C | 1.59 |
| G63C C89U | -1.31 |
| G61C G107A U112A G117U | -6.86 |
| G63C U78A G110U | -3.31 |
| G61U A105U | -1.36 |
| G61U A105C | -1.99 |
| A66C C70A | -3.75 |
| C64G C102U C124U | -6.08 |
| G63A G69U C79U | -0.72 |
| C62A U133A | -1.52 |
| G63U C94G | -1.4 |
| G63U C114U | -3.25 |
| G63U C114A | -3.04 |
| G61U C86A A119C G120A | -2.79 |
| C62A U78C G117A | -3.04 |
| C64G C89U C123U | -5.79 |
| C62A U116G G120C U129A | -3.57 |
| C62U C123U | 1.47 |
| G63C G128C | -3.04 |
| C64U A74C | -0.717 |

| Variant | polymerase ribozyme fitness (log ratio) |
| --- | --- |
| C62A G77C U87A | -1.71 |
| C64U A95G | -1.52 |
| G61U G77C A119U | -1.73 |
| G61U A90U | -2.11 |
| C62A A103U | -5.71 |
| G61U | 0.14 |
| C62A A95U | -1.55 |
| C62U G69A | -3.76 |
| C64U U78C U96C C124U U126C U133G | -0.424 |
| G61U C97A | -3.26 |
| C62A U109G G110U | -4.7 |
| G61U C98A C99A | -5.19 |
| C62A U81A G93A | -2.69 |
| C62U C104G | -7 |
| G63C C85U A111C G122C | -3.75 |
| C62A G107A | -5.05 |
| G63U C82A C104U A108C | -6.05 |
| G61U C86A A103C | -5.4 |
| G63U G93U | -1.76 |
| G63A U131G | -1.53 |
| G63A G128U | -3.07 |
| G63A C80A | -4.42 |
| G61U A68U U87A C114G | -6.91 |
| C64U C114U U125A | -2.95 |

| Variant | polymerase ribozyme fitness (log ratio) |
| --- | --- |
| G63U U78G | -3.12 |
| C62A U78A A91U A111C | -4.78 |
| G61U G128A | -1.7 |
| C64U C99U | -2.88 |
| G63A C89U | -1.62 |
| G63A C89G | -2.7 |
| G63A G93A C97U U130A | -2.59 |
| C64U G71U C88U | -5.13 |
| G61C U126A | -2.98 |
| G61U U81G C86U G120U | -2.64 |
| C62G C79U | -1.14 |
| C62U A83G | -1.18 |
| G63A C72G | -3.11 |
| G61C G113U | -4.1 |
| G61U G107A | -5.22 |
| C62A C72G U112G | -1.95 |
| G63A U87G A111C | -1.52 |
| G63A U78C G113A | -1.96 |
| C62A C101A | -2.84 |
| C62A C101U | -2.3 |
| C62G | -1.53 |
| C62U | -0.118 |
| C62A | -0.872 |
| G63C U116C | -1.29 |

| Variant | polymerase ribozyme fitness (log ratio) |
| --- | --- |
| C62A A66U | -3.17 |
| G63A C70G C73A | -5.82 |
| G63A G113U | -2.82 |
| G63A G113A | -1.68 |
| G63U G77U U78C | -2.41 |
| C62A C94U | -1.76 |
| C62U C80U C97U | -0.921 |
| A66C G69A | -3.84 |
| C62G C82U G117C | -5.97 |
| C64U C115A U125A | -0.872 |
| G63A G120A | -0.19 |
| C62U C86A | -0.731 |
| C62U C86U | -0.567 |
| C64A U133A | -6.16 |
| C62A C101A C114A | -3.81 |
| G63A U116C | -0.908 |
| C62A G117C | -4.72 |
| C64U A118U | 0.459 |
| A66C A90G C114G | -4.05 |
| G63A G77C A119U | -2.08 |
| C62U C98A A103C U129C | -6.12 |
| A66C A91U | -4.65 |
| G63A G71A | -2.59 |
| C62U A121G | 2.41 |

| Variant | polymerase ribozyme fitness (log ratio) |
| --- | --- |
| G61U U106A U116C | -0.163 |
| G61U U133G | -0.566 |
| C64U U116G G117C | -2.86 |
| G61U C82A | -0.605 |
| C64A U78C C123U | -4.49 |
| G61U C97A C123A | -4.17 |
| C64A U87A | -6.3 |
| C64U U106C | -0.52 |
| G61U C97G G113U | -5.53 |
| G63C G117C A119U | -4.1 |
| G63U C85U U130A | -2.02 |
| C62A C82U | -0.465 |
| G61U C94U | 0.338 |
| G63C A90C | -2.06 |
| G63C A90U | -2.23 |
| C64U G107A | -3.01 |
| C62U A84C | -1.06 |
| C62A U87G U106G | -2.77 |
| G63C U126G | -1.74 |
| C62U C89G G93A C101U G113C C114U G127C | -4.42 |
| G63A G122A | -1.62 |
| C64U C72U A90C C104A A111G G127A G135A | -4.26 |
| C62A G77U C114G | -4.81 |
| G63U A84U C86A G128U U130C | -3.81 |

| Variant | polymerase ribozyme fitness (log ratio) |
| --- | --- |
| C64U A66U C124A | 1.13 |
| G61U C89A | -1.5 |
| G61U C102U | -1.65 |
| C64G U112A | -4.73 |
| G63A C73A C114G | -5.85 |
| G65U G71A | -4.69 |
| C62G U78C | -1.87 |
| C64U G127C | -1.82 |
| G63C C102A | -2.59 |
| C62U G135U | -0.561 |
| C62U U133G | -1.15 |
| G63C U116A C123U | -1.91 |
| G61U U78C C89G | -1.23 |
| G63A U96G C124U | 0.174 |
| C62U C98U A111U G120C | -4.23 |
| G63U G113A G128U | -4.06 |
| C62U C70G C72U G120U | -2.44 |
| G63C C101U | -1.5 |
| C64A C82G A121C | -7.17 |
| C62A A105G | -4.17 |
| G61U G113C U130G G135U | -3.21 |
| C64U G135U | -0.52 |
| C62A G120C | -0.534 |
| G61U A95U | -0.221 |

| Variant | polymerase ribozyme fitness (log ratio) |
| --- | --- |
| G61U C115G G117A G122U U126C | -4.57 |
| C64U C82U C89A | -1.79 |
| C62A C82A C85U | -2.3 |
| C64U C94A | -0.615 |
| C62U G93A | -0.42 |
| C64U C70G C79U A111U U112A C124A | -5.81 |
| C62A G110C G127U | -5.37 |
| G63C A66U G77C A91C C94A | -6.25 |
| C62G U106C | -2.05 |
| C62U A95U C114U | -3.03 |
| C64U A111U | -3.24 |
| C64U A111C | 0.336 |
| C64U C72U U106G G127C | -2.97 |
| G61C U109A | -4.34 |
| G63A C114U | -2.82 |
| G63A G93U C98U A121G | -0.418 |
| C62U U129C | 0.0239 |
| C62U U129G | -1.28 |
| C62U U125A | -1.11 |
| C64A C88G | -6.08 |
| G61U U81C C86G G113U A119U | -6.31 |
| C64U C114A | -1.4 |
| C64U C114U | -1.47 |
